We go through one sequence from US20240226168A1.

This test has as its target poliovirus receptor (PVR) (UniProt P15151). Kind of test: cell-based or functional assay.

Chain of poliovirus receptor (PVR) (P15151 21-417 limits assumed): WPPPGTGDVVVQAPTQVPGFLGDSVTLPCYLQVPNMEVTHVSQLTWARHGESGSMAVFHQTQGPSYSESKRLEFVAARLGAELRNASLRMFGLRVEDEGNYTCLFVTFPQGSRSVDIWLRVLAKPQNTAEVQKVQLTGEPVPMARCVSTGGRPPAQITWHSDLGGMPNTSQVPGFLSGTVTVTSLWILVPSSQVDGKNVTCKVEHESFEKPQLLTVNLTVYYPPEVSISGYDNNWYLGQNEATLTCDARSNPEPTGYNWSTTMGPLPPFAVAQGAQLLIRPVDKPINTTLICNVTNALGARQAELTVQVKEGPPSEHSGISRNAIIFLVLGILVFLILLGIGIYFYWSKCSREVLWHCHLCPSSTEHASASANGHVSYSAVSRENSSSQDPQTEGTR

Consider “T cell immunoreceptor with Ig and ITIM domains (TIGIT) (from UniProt Q495A1 22-244)”, for which the frequency of TNFα+ NK cells after A549 spheroid co-culture (isotype control) and restimulation with PVR+ K562 cells was found to be 15%; the loss in the IFNγ generation capacity of A549 spheroid-exposed PM21-NK cells was 30%.
